Data reported in doi:10.1101/2024.01.29.577855.

Molecular target: recombinant yeast TBC-DEG (TBCD, TBCE, Arl2) (yeast) (UniProt P40987)
Assay: SEC

Chain of recombinant yeast TBC-DEG (TBCD, TBCE, Arl2) (yeast) (P40987 whole entry, chain 1 of 3): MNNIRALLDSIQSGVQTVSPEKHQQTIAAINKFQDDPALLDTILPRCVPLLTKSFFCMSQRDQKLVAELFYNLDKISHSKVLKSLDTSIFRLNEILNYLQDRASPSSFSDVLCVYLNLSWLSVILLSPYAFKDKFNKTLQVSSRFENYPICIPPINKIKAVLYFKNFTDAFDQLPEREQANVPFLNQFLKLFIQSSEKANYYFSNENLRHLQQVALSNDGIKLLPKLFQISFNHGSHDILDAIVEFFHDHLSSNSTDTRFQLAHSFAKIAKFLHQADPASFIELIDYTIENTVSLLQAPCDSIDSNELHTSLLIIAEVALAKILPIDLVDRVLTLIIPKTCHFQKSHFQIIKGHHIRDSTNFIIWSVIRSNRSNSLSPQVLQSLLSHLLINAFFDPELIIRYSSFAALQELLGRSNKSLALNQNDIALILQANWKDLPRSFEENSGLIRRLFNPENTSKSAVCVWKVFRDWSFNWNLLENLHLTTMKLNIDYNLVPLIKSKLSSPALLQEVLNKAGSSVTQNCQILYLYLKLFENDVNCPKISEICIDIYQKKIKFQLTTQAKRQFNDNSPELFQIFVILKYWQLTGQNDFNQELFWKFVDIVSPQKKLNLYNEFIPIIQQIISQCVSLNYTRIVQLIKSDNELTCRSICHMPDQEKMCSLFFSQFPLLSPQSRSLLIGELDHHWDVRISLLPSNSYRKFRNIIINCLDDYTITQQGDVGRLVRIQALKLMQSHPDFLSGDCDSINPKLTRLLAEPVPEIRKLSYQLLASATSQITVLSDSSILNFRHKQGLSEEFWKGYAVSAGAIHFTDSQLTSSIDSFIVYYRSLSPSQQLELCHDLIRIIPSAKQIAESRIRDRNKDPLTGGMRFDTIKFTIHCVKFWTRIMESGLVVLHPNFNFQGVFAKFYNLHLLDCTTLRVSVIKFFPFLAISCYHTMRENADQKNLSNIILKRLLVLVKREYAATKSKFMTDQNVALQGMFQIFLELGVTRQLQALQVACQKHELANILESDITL
Chain of recombinant yeast TBC-DEG (TBCD, TBCE, Arl2) (yeast) (P39937 whole entry, chain 2 of 3, further chain): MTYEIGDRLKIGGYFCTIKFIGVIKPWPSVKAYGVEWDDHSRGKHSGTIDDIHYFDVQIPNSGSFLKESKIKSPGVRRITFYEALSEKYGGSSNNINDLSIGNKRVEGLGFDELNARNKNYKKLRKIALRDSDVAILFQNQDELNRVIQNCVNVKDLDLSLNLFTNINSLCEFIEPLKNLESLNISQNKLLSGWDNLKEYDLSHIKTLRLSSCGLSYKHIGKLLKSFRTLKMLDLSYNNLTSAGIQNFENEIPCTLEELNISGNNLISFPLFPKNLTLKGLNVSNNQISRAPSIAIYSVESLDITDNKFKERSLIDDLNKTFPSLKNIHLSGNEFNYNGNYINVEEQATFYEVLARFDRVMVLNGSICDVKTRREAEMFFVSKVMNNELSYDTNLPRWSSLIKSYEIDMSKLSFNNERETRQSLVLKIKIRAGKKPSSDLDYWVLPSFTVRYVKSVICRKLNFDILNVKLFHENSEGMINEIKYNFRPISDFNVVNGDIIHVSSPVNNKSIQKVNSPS
Chain of recombinant yeast TBC-DEG (TBCD, TBCE, Arl2) (yeast) (P39110 whole entry, chain 3 of 3, further chain): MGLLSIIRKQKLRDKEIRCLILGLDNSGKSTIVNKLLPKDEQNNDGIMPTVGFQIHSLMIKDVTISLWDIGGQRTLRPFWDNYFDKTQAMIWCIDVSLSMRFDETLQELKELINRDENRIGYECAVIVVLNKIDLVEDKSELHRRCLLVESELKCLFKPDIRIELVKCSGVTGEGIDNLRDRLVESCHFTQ

**Q.** How did the stoichiometry N turn out when “porcine brain αβ-tubulin heterodimer (from UniProt P02550 1-451; P02554 1-445) (complex)” was run?
**A.** 1
